Assay results taken from paper PMC2796168.

Legend:
CCL18 (Homo sapiens) = CCL18 (Homo sapiens) (UniProt P55774); details: cited from earlier work
CCL3 (Homo sapiens) = CCL3 (Homo sapiens) (UniProt P10147); details: cited from earlier work
CCL4 (Homo sapiens) = CCL4 (Homo sapiens) (UniProt P13236); details: cited from earlier work
[1] = target: non-glycosylated Evasin-1 (Rhipicephalus sanguineus) (UniProt P0C8E7); test: crystal structure; complex of non-glycosylated Evasin-1 and ΔAla1-CCL3 (A10T), formed overnight at 4°C at a molar ratio of 1:2.5, captured on Ni-NTA; crystals in 24% PEG 3350, 0.2 M ammonium sulphate, 0.1 M HEPES pH 8.1; 1.9 Å
Sequence of non-glycosylated Evasin-1 (Rhipicephalus sanguineus) (P0C8E7 21-114): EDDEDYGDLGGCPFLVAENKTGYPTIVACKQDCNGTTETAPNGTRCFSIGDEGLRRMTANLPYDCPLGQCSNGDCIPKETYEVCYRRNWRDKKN

Sequence of Evasin-1 (P0C8E7 21-114): as above
Sequence of CCL18 (Homo sapiens) (P55774 24-89): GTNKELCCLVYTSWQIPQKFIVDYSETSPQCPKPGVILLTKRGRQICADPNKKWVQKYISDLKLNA
Sequence of CCL3 (Homo sapiens) (P10147 24-92): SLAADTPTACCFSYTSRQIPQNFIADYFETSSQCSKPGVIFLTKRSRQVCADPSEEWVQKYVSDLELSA
Sequence of CCL4 (Homo sapiens) (P13236 24-92): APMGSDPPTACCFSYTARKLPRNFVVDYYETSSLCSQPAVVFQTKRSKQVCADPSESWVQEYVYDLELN

Evasin-1 (from UniProt P0C8E7)
Kd (CCL18 (Homo sapiens)): 3.2 nM | Kd (CCL3 (Homo sapiens)): 0.16 nM | Kd (CCL4 (Homo sapiens)): 0.81 nM

ΔAla1-CCL3 (A10T) (ligand)
stoichiometry N [1]: 1
